Experimental data taken from PMC11139201, “RsaL is a self‐regulatory switch that controls alternative biosynthesis of two AHL‐type quorum sensing signals in Pseudomonas aeruginosa PA1201”.
Positions count from the first letter of the chain named.

Target: RsaL (Pseudomonas aeruginosa PA1201, UniProt Q9X7H4 1-80)
Assay: EMSA; EMSA: 10 mM Tris-HCl pH 8.0, 1 mM EDTA, 5 mM MgCl2, 50 mM KCl, 2.5% glycerol, 30 ug/ml poly(dI-dC), 0.05% NP-40, room temperature 20 min; footprint: 100 ng probe in 40 ul, 30 min room temperature, DNase I 1 min 25 C
Conditions: protein: recombinant, tags: His (pET28a), chain copies: 2

B1: PRO-II (dsDNA)
DNA 1: AAATGAGATAGATTTCGGTGAACCCGGACCCTTGCTAGGCTCGAAGAAACGTCCGAAAAGATCAGAGCAATGGCTTCACACGAG
DNA 2: CTCGTGTGAAGCCATTGCTCTGATCTTTTCGGACGTTTCTTCGAGCCTAGCAAGGGTCCGGGTTCACCGAAATCTATCTCATTT
binding result (label: Cy5): binds

B2: PRO-II-p (dsDNA)
DNA 1: B1 DNA 1 with A12G, T13C, T14C, T15C
DNA 2: B1 DNA 2 with A70G, A71G, A72G, T73C
binding result: no binding
